Values of other authors in paper PMC8246649 (Biochemistry, 2021).

Tests used:
[1] = molecular target: UNC119B (Homo sapiens, UniProt A6NIH7); conditions: read-out: Reported Kd of release factor to UNC119B
[2] = molecular target: UNC119A (Homo sapiens, UniProt Q13432); conditions: read-out: Reported Kd of release factor to UNC119A

Chain of UNC119B (A6NIH7 whole entry): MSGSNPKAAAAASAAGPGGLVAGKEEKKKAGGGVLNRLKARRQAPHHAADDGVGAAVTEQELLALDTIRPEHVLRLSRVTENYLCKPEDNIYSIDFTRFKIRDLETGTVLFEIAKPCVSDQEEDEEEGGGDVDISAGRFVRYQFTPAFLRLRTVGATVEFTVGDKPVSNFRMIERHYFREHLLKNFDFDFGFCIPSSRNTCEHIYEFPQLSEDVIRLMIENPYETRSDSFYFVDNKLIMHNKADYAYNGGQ

| Kd [1] [nM] | Kd [2] [nM] | Substance |
| --- | --- | --- |
| 33 |  | ARL3: ADP ribosylation factor-like protein 3, release factor of UNC119 cargo |
| 216 | 159 | ARL2: ADP ribosylation factor-like protein 2, release factor of UNC119 cargo |
